Tests used:
GLP-1 receptor [1] = assay: comparison of IC50 values, competition with I-125 exendin-4 (9-39) on RIN-m5F cells
GLP-1 receptor [2] = assay: competition with I-125 exendin-4 (9-39) on RIN-m5F cells expressing GLP-1R, gamma counting

Substance C40-PEG5K-Ex4 (linear) (peptide) has a fold better activity than Comparative example 1a (Lys^12-PEG5K-Ex4) (GLP-1 receptor [1]) of 6 fold, a fold better activity than Comparative example 1b (Lys^27-PEG5K-Ex4) (GLP-1 receptor [1]) of 2 fold and a fold better activity than Comparative example 2 (Nter-PEG5K-Ex4) (GLP-1 receptor [1]) of 120 fold. The IC50 (GLP-1 receptor [2]) was 1.04 nM.

exendin-4 (peptide) was tested, and the IC50 (GLP-1 receptor [2]) was 0.23 nM.
